{"source": "the supplement of paper PMC10724198", "note": "± gives the standard deviation of the averaged measurements.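 Further: PSI is a weighted mean of sequencing reads over stability bins, variants kept only with over 10 reads, mCherry proximal and sfGFP distal, peptide attached via GGGS linker.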"}
{"test_system": "Saccharomyces cerevisiae", "test": "protein stability index of tFT-peptide fusion (C-terminal peptide) (PSI (0-1 scale)); higher = more stable (slower turnover)", "details": "genetic background: wild type; temperature: 30 C", "experimental": "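Multiplexed protein stability (MPS) profiling in S. cerevisiae. Random 12-aa peptides (tFT-X12 library) are fused to the C-terminus of a sfGFP-mCherry tandem fluorescent timer, after mCherry and a GGGS linker. Cells are FACS-sorted into 8 mCherry/sfGFP bins and deep-sequenced. The protein stability index (PSI) is the read-weighted bin average, scaled from 0 (unstable) to 1 (stable). Only peptides with >10 reads are reported; cells were grown at 30 °C in SC-His with glucose.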"}
{"sequence": "IQKNSGHPMKEA", "protein stability index": "0.711 ± 0.023"}
{"sequence": "GGGECLWNKQAV", "protein stability index": "0.687 ± 0.024"}
{"sequence": "RVSIPALKEIAS", "protein stability index": "0.737 ± 0.036"}
{"sequence": "VSDGGCIFHRRT", "protein stability index": "0.704 ± 0.055"}
{"sequence": "PGHRVLKILHLR", "protein stability index": "0.551 ± 0.055"}
{"sequence": "RCSDILGKGKHV", "protein stability index": "0.661 ± 0.0084"}
{"sequence": "PLPRPPPPSCPP", "protein stability index": "0.654 ± 0.076"}
{"sequence": "GVVVRSCLMGFT", "protein stability index": "0.619 ± 0.022"}
{"sequence": "RPPSNRPPPPSS", "protein stability index": "0.698 ± 0.0032"}
{"sequence": "FFPPAPLTSLLP", "protein stability index": "0.697 ± 0.057"}
{"sequence": "QAVVGSYRELGE", "protein stability index": "0.709 ± 0.038"}
{"sequence": "PSPPAPPPSPLP", "protein stability index": "0.823 ± 0.15"}
{"sequence": "GSEAGEPRAGRA", "protein stability index": "0.675 ± 0.015"}
{"sequence": "ASLLSCSLLPPV", "protein stability index": "0.765 ± 0.08"}
{"sequence": "ISVSRLRMKDRN", "protein stability index": "0.713 ± 0.22"}
{"sequence": "PPLTHASPLHLI", "protein stability index": "0.585 ± 0.021"}
{"sequence": "EVVRWGCVDLWI", "protein stability index": "0.717 ± 0.051"}
{"sequence": "TSPTIPSTPFSN", "protein stability index": "0.704 ± 0.087"}
{"sequence": "VLVLVARPLWRI", "protein stability index": "0.646 ± 0.0094"}
{"sequence": "RPFGRPTSMRHA", "protein stability index": "0.616 ± 0.059"}
{"sequence": "PPSPSLRSLPRP", "protein stability index": "0.626 ± 0.064"}
{"sequence": "CPSHPDCFPDRL", "protein stability index": "0.6792 ± 0.0039"}
{"sequence": "KRGKKNEESRRD", "protein stability index": "0.68 ± 0.085"}
{"sequence": "RKMYRIKKEIKI", "protein stability index": "0.641 ± 0.098"}
{"sequence": "LGSAIQGFLILT", "protein stability index": "0.5996 ± 0.0017"}
{"sequence": "PHHPPAHPPTPP", "protein stability index": "0.683 ± 0.023"}
{"sequence": "ALCSGCFAFLGA", "protein stability index": "0.676 ± 0.11"}
{"sequence": "AQSPRFPYRNYH", "protein stability index": "0.693 ± 0.049"}
{"sequence": "KRSNKGAKKKGK", "protein stability index": "0.672 ± 0.041"}
{"sequence": "KPKKKKKDEQTI", "protein stability index": "0.672 ± 0.035"}
{"sequence": "LRLFAGTFSGTP", "protein stability index": "0.698 ± 0.03"}
{"sequence": "SPPSATTLRAPS", "protein stability index": "0.641 ± 0.037"}
{"sequence": "GLVVCGGQVVEG", "protein stability index": "0.704 ± 0.042"}
{"sequence": "VRRETGPPRAPT", "protein stability index": "0.6717 ± 0.0019"}
{"sequence": "VCGSIRVIAWGD", "protein stability index": "0.671 ± 0.057"}
{"sequence": "RHTARQSTTWRG", "protein stability index": "0.695 ± 0.071"}
{"sequence": "RVPPSRLSLPLS", "protein stability index": "0.6951 ± 0.0043"}
{"sequence": "SSPSPAPPPPRP", "protein stability index": "0.738 ± 0.069"}
{"sequence": "GAVHQLGTCLFF", "protein stability index": "0.671 ± 0.045"}
{"sequence": "PPPRPPLPPPPS", "protein stability index": "0.727 ± 0.034"}
{"sequence": "VGFGVRTGETVV", "protein stability index": "0.685 ± 0.048"}
{"sequence": "PPPLTYPTSPPS", "protein stability index": "0.661 ± 0.019"}
{"sequence": "RASWVRTLMSCQ", "protein stability index": "0.58161 ± 0.00022"}
{"sequence": "YFTNSVPVGTVA", "protein stability index": "0.501 ± 0.0076"}
{"sequence": "RNNIKIKNTQQN", "protein stability index": "0.759 ± 0.045"}
{"sequence": "GRWRCVYRGCGG", "protein stability index": "0.646 ± 0.076"}
{"sequence": "WNQRMEPCLMSS", "protein stability index": "0.65 ± 0.026"}
{"sequence": "SRHWCHDTGTLT", "protein stability index": "0.7 ± 0.012"}
{"sequence": "RSLPLAPPLAPL", "protein stability index": "0.742 ± 0.029"}
{"sequence": "RKKKNRKERQKK", "protein stability index": "0.6725 ± 0.00086"}
{"sequence": "HQFRPYPLFTAR", "protein stability index": "0.733 ± 0.013"}
{"sequence": "FCLGMRKHSSPL", "protein stability index": "0.731 ± 0.02"}
{"sequence": "KKNEKKNRKKKN", "protein stability index": "0.71 ± 0.022"}
{"sequence": "EFFVLVHLVDPK", "protein stability index": "0.638 ± 0.041"}
{"sequence": "KTKKENGRGEKN", "protein stability index": "0.697 ± 0.04"}
{"sequence": "PRELFGFNLAQP", "protein stability index": "0.692 ± 0.011"}
{"sequence": "QWLGRDLKSREL", "protein stability index": "0.691 ± 0.064"}
{"sequence": "MYHGKKTAGINV", "protein stability index": "0.7 ± 0.037"}
{"sequence": "FSSCFLVSPSLF", "protein stability index": "0.648 ± 0.016"}
{"sequence": "FSWDRIKQCSSV", "protein stability index": "0.7094 ± 0.0035"}
{"sequence": "IRQTIEGRRLVM", "protein stability index": "0.662 ± 0.026"}
{"sequence": "PPPLLSPAFFLP", "protein stability index": "0.727 ± 0.053"}
{"sequence": "VAIVGCVGKLIR", "protein stability index": "0.6468 ± 0.0036"}
{"sequence": "FKQLKKKKKNRR", "protein stability index": "0.741 ± 0.091"}
{"sequence": "ARPPPPPRSSPL", "protein stability index": "0.747 ± 0.072"}
{"sequence": "VRGVGGLWGGAV", "protein stability index": "0.785 ± 0.17"}
{"sequence": "FPSSSHLPWLLI", "protein stability index": "0.633 ± 0.014"}
{"sequence": "RPLPPLIPSSFS", "protein stability index": "0.698 ± 0.038"}
{"sequence": "KKNNKKNNKKKQ", "protein stability index": "0.678 ± 0.078"}
{"sequence": "KVPNEIKRYVFI", "protein stability index": "0.66446 ± 8.8e-05"}
{"sequence": "GVPLSGLVCPRP", "protein stability index": "0.7103 ± 0.001"}
{"sequence": "LVRASDPLSVTI", "protein stability index": "0.689 ± 0.073"}
{"sequence": "KKNKLKDSIKNI", "protein stability index": "0.663 ± 0.016"}
{"sequence": "LDAMNTSWYVKM", "protein stability index": "0.676 ± 0.025"}
{"sequence": "YSREVVGKQLFM", "protein stability index": "0.693 ± 0.027"}
{"sequence": "LLPLLPPAPPSP", "protein stability index": "0.687 ± 0.024"}
{"sequence": "LVCGIDSLVRLV", "protein stability index": "0.57 ± 0.029"}
{"sequence": "LCFGGLVLFSFG", "protein stability index": "0.601 ± 0.035"}
{"sequence": "FYGCRLLFLKAR", "protein stability index": "0.5273 ± 0.00073"}
{"sequence": "PSPPPVSPVVPP", "protein stability index": "0.672 ± 0.036"}
{"sequence": "RDSVLSFSALQV", "protein stability index": "0.681 ± 0.0097"}
{"sequence": "DVLSLFCKFFGV", "protein stability index": "0.661 ± 0.075"}
{"sequence": "SPRSSPLPSPPP", "protein stability index": "0.766 ± 0.026"}
{"sequence": "KKKKKTKNIKKT", "protein stability index": "0.794 ± 0.059"}
{"sequence": "PLPPPLPQAPPT", "protein stability index": "0.695 ± 0.021"}
{"sequence": "RRHKNNRLTVCR", "protein stability index": "0.625 ± 0.098"}
{"sequence": "KKKQKKVSNKQT", "protein stability index": "0.699 ± 0.044"}
{"sequence": "WPLVGLIGVPGR", "protein stability index": "0.668 ± 0.035"}
{"sequence": "VESGVREEKCMS", "protein stability index": "0.708 ± 0.11"}
{"sequence": "DQRLKKKTVQMK", "protein stability index": "0.778 ± 0.076"}
{"sequence": "RIHAVINLLMND", "protein stability index": "0.651 ± 0.039"}
{"sequence": "LVRILSRSVVRT", "protein stability index": "0.697 ± 0.078"}
{"sequence": "EGVSGVSLFRVL", "protein stability index": "0.661 ± 0.051"}
{"sequence": "PPLLPLSQPLPH", "protein stability index": "0.683 ± 0.038"}
{"sequence": "DRCLFRFNLWGG", "protein stability index": "0.7203 ± 0.0063"}
{"sequence": "KKKKKKKKRARY", "protein stability index": "0.657 ± 0.0063"}
{"sequence": "DIKATRTYNHKV", "protein stability index": "0.68 ± 0.029"}
{"sequence": "GHVLVRHNVLAV", "protein stability index": "0.58 ± 0.026"}
